From PMC5321536 (Angewandte Chemie (International ed. in English), 2017) come the findings set out here.

This series deals with the molecule itself. Nature of the series: solution-state diffusion-ordered NMR spectroscopy.

B1: isolated cytoplasmic (soluble) C-terminal domain of CzcD (CzcD_(209-316)) (domain or fragment, Cupriavidus metallidurans CH34, UniProt P13512 209-316, looked up)
chain: EGVPDDVDLAEVEKQILATPGVKSFHDLHIWALTSGKASLTVHVVNDTAVNPEMEVLPELKQMLADKFDITHVTIQFELAPCEQADAAQHFNASPALVGSKSLAAGGN
In the case of B1, the “stoichiometry N” value came to 2.
